Where a chain is given by its changes, count along the chain named.

Targets include cdMMP-14 F198A (Homo sapiens, UniProt P50281, F198A); cdMMP-14 F260A (Homo sapiens, UniProt P50281, F260A); cdMMP-14 N231A (Homo sapiens, UniProt P50281, N231A).
Assay in all cases: ELISA
A general note: ELISA stands for enzyme-linked immunosorbent assay.

Assay [1] has as its target cdMMP-14 P259 alanine mutant (Homo sapiens, UniProt P50281, P259 to Ala).

B1: Fab 3E2 (Fab, V domains shown)
VH: EVQLVESGGGLVQPGGSLRLSCAASGFNIYYYSIHWVRQAPGKGLEWVASIYPYSSYTYYADSVKGRFTISADTSKNTAYLQMNSLRAEDTAVYYCARGIKGLVFTGSQMKMLRRGNYNWYVMDYWGQGTLVTVSS
VL: DIQMTQSPSSLSASVGDRVTITCRASQSVSSAVAWYQQKPGKAPKLLIYSASSLYSGVPSRFSGSRSGTDFTLTISSLQPEDFATYYCQQSSYSLITFGQGTKVEIK
The IC50 is the concentration that inhibits the measured activity by half. A lower IC50 goes with inhibition by little substance. With B1, the IC50 (in the assay with cdMMP-14 F198A; in assay [1]) was above 900 nM throughout.

B2: Fab 3E9 (Fab, V domains shown)
VH: EVQLVESGGGLVQPGGSLRLSCAASGFNLYYSSMHWVRQAPGKGLEWVASIYPSYGSTYYADSVKGRFTISADTSKNTAYLQMNSLRAEDTAVYYCARNGRYPGFLKRAHKRLLNFKAYVMDYWGQGTLVTVSS
VL: B1 VL with S91G, Y93W, S94Y
Consider B2, for which the “fold increase in IC50 against cdMMP-14 wt” value in the assay with cdMMP-14 F260A was found to be 33 fold.

B3: Fab 2B5 (Fab, V domains shown)
VH: EVQLVESGGGLVQPGGSLRLSCAASGFNLSYSSMHWVRQAPGKGLEWVASIYPYSGYTYYADSVKGRFTISADTSKNTAYLQMNSLRAEDTAVYYCARIGVNAWAVKMSQRMLATRGSGWYVMDYWGQGTLVTVSS
VL: DIQMTQSPSSLSASVGDRVTITCRASQSVSSAVAWYQQKPGKAPKLLIYSASSLYSGVPSRFSGSRSGTDFTLTISSLQPEDFATYYCQQSSSYPYSPITFGQGTKVEIK
With B3, the “fold weakening of IC50 against cdMMP-14 wt” value in the assay with cdMMP-14 N231A was 14 fold.

The record behind these values is PMC7572768 (Biochemistry, 2020).
